This is an account of results in article PMC7022988, “General and Genomic DNA-Binding Specificity for the Thermus thermophilus HB8 Transcription Factor TTHB023”.

The term Kd denotes the concentration at which binding is half-saturated.

Data set [1] concerns the target T1, TTHB023 (PfmR) (Thermus thermophilus HB8) (UniProt Q53WD9).
T1 sequence: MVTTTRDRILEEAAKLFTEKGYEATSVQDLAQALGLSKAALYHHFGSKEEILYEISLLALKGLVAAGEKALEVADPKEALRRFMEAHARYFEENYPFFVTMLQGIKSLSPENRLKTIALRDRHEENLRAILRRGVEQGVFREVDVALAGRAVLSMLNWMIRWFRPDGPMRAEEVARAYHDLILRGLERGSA
The data set is described as follows: BLI. The settings on record: BLI: 20 mM Tris-Cl pH 7.7, 100 mM NaCl, 1 mM EDTA, 0.05% Tween 20, 1.4 nM biotin-DNA loaded at 37 °C, 3.7-300 nM protein; EMSA: 1x NEB CutSmart buffer, 55 °C …. For orientation: In EMSA bound probe runs differently from free probe, usually more slowly.

The target in data set [2] is T2, TTHB023 (PfmR) (Thermus thermophilus HB8, UniProt Q53WD9 1-191).
T2 sequence: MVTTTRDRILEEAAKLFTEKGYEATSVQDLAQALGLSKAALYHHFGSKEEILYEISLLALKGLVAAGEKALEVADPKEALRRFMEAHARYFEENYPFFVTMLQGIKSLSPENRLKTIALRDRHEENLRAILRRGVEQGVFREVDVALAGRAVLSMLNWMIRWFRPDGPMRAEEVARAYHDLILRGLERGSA
The data set is described as follows: BLI; printed koff/kon (1.072e-4/2.350e5) does not match printed KD; BLI: 20 mM Tris-Cl pH 7.7, 100 mM NaCl, 1 mM EDTA, 0.05% Tween 20, 1.4 nM biotin-DNA loaded at 37 °C, 3.7-300 nM protein; EMSA: 1x NEB CutSmart buffer, 55 °C 20 min, 1 ng DNA in 5 µL, 10% native PAGE. The settings on record: protein: recombinant; chain copies: 2; label: 5' biotin-dT on strand 2; blunt. Background: BLI is a label-free optical method that tracks binding on a fibre tip over time.

The target of data set [3] is T2, TTHB023 (PfmR). Put plainly: BLI; BLI: 20 mM Tris-Cl pH 7.7, 100 mM NaCl, 1 mM EDTA, 0.05% Tween 20, 1.4 nM biotin-DNA loaded at 37 °C, 3.7-300 nM protein; EMSA: 1x NEB CutSmart buffer, 55 °C 20 min, 1 ng DNA in 5 µL, 10% native PAGE. The settings on record: protein: recombinant; chain copies: 2; label: 5' biotin-dT on strand 2; blunt.
Data set [4] addresses T2, TTHB023 (PfmR). Put plainly: BLI; slight effect only at 300 nM, nonspecific; Kd extrapolated; BLI: 20 mM Tris-Cl pH 7.7, 100 mM NaCl, 1 mM EDTA, 0.05% Tween 20, 1.4 nM biotin-DNA loaded at 37 °C, 3.7-300 nM protein; EMSA: 1x NEB CutSmart buffer, 55 °C 20 min, 1 ng DNA in 5 µL, 10% native PAGE. The settings on record: protein: recombinant; chain copies: 2; label: 5' biotin-dT on strand 2; blunt.

In data set [1], “CTAGGAATTCGTGCAGAGGTGAATCTGACCGATCGGTCAGTTACCATCCCTCCAGAAGCTTGGACA (double strand) [ST2_B023_R6_wt consensus (BLI probe)]” returned a Kd of 2.1 nM.

B1: m1 (dsDNA)
DNA 1: CTAGGAATTCGTGCAGAGGTGAATGTGACCGATCGGTCAGTTACCATCCCTCCAGAAGCTTGGACA
DNA 2: TGTCCAAGCTTCTGGAGGGATGGTAACTGACCGATCGGTCACATTCACCTCTGCACGAATTCCTAG
With B1, in the data set with TTHB023 (PfmR) [2], the dissociation constant Kd was found to be 4.56 nM.

B2: m8 (dsDNA)
DNA 1: CTAGGAATTCGTGCAGAGGTGAATCTGACCGCTCGGTCAGTTACCATCCCTCCAGAAGCTTGGACA
DNA 2: TGTCCAAGCTTCTGGAGGGATGGTAACTGACCGAGCGGTCAGATTCACCTCTGCACGAATTCCTAG
As to B2, the Kd with TTHB023 (PfmR) [3] worked out at 59.5 nM.

B3: m2 (dsDNA)
DNA 1: CTAGGAATTCGTGCAGAGGTGAATCGGACCGATCGGTCAGTTACCATCCCTCCAGAAGCTTGGACA
DNA 2: TGTCCAAGCTTCTGGAGGGATGGTAACTGACCGATCGGTCCGATTCACCTCTGCACGAATTCCTAG
B3: the Kd with TTHB023 (PfmR) [3] amounted to 23 nM.

B4: m5 (dsDNA)
DNA 1: CTAGGAATTCGTGCAGAGGTGAATCTGATCGATCGGTCAGTTACCATCCCTCCAGAAGCTTGGACA
DNA 2: TGTCCAAGCTTCTGGAGGGATGGTAACTGACCGATCGATCAGATTCACCTCTGCACGAATTCCTAG
With B4, the Kd with TTHB023 (PfmR) [3] came out at 53.1 nM.

B5: m7 (dsDNA)
DNA 1: CTAGGAATTCGTGCAGAGGTGAATCTGACCCATCGGTCAGTTACCATCCCTCCAGAAGCTTGGACA
DNA 2: TGTCCAAGCTTCTGGAGGGATGGTAACTGACCGATGGGTCAGATTCACCTCTGCACGAATTCCTAG
For the molecule B5, the Kd in the data set with TTHB023 (PfmR) [3] was determined as 205 nM.

B6: m3 (dsDNA)
DNA 1: CTAGGAATTCGTGCAGAGGTGAATCTCACCGATCGGTCAGTTACCATCCCTCCAGAAGCTTGGACA
DNA 2: TGTCCAAGCTTCTGGAGGGATGGTAACTGACCGATCGGTGAGATTCACCTCTGCACGAATTCCTAG
Consider B6, for which the Kd in the data set with TTHB023 (PfmR) [3] came to 6.62 nM.

B7: m4 (dsDNA)
DNA 1: CTAGGAATTCGTGCAGAGGTGAATCTGCCCGATCGGTCAGTTACCATCCCTCCAGAAGCTTGGACA
DNA 2: TGTCCAAGCTTCTGGAGGGATGGTAACTGACCGATCGGGCAGATTCACCTCTGCACGAATTCCTAG
Regarding B7, the equilibrium dissociation constant (Kd) with TTHB023 (PfmR) [3] came to 27.8 nM.

B8: m6 (dsDNA)
DNA 1: CTAGGAATTCGTGCAGAGGTGAATCTGACGGATCGGTCAGTTACCATCCCTCCAGAAGCTTGGACA
DNA 2: TGTCCAAGCTTCTGGAGGGATGGTAACTGACCGATCCGTCAGATTCACCTCTGCACGAATTCCTAG
Take B8: the Kd in the data set with TTHB023 (PfmR) [3] was 279 nM.

B9: REPSAis control (dsDNA)
DNA 1: CTAGGAATTCGTGCAGAGGTGAATCGTCATAGAATTCGTTACCATCCCTCCAGAAGCTTGGACA
DNA 2: TGTCCAAGCTTCTGGAGGGATGGTAACGAATTCTATGACGATTCACCTCTGCACGAATTCCTAG
Regarding B9, in the data set with TTHB023 (PfmR) [4], the dissociation constant (Kd) is 138000 nM.
